In article PMC6309207 (Journal of neurochemistry, 2015):
No end group written: not given here. *: point of attachment. Farnesyl = CC(C)=CCC/C(C)=C/CC/C(C)=C/C*

T1: hAIPL1 R302L mutant, His6-tagged (human, UniProt Q9NZN9 1-384, R302L)
T1 sequence (looked up): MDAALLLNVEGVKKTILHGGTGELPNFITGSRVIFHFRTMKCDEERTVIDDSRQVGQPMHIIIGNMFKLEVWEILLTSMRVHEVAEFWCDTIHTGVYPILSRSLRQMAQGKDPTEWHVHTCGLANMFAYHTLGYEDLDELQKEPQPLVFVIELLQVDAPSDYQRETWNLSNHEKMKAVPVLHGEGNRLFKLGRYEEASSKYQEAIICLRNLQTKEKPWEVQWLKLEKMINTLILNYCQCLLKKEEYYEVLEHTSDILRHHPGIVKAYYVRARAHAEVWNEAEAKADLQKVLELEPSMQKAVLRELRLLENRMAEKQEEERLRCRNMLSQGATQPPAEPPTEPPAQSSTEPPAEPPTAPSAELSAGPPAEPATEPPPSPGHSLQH

T2: hAIPL1 1–316 lacking the proline-rich domain, His6-tagged (human, UniProt Q9NZN9 1-316)
T2 sequence (looked up): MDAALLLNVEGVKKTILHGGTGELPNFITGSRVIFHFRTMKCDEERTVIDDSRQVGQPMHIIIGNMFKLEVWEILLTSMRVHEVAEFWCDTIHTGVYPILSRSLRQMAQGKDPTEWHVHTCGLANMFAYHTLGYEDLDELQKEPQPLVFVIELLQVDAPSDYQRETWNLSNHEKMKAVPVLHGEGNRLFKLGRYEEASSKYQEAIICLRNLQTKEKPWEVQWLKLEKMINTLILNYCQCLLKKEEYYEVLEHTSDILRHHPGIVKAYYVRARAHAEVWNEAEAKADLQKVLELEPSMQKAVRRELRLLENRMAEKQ

T3: hAIPL1 P376S mutant, His6-tagged (human, UniProt Q9NZN9 1-384, P376S)
T3 sequence (looked up): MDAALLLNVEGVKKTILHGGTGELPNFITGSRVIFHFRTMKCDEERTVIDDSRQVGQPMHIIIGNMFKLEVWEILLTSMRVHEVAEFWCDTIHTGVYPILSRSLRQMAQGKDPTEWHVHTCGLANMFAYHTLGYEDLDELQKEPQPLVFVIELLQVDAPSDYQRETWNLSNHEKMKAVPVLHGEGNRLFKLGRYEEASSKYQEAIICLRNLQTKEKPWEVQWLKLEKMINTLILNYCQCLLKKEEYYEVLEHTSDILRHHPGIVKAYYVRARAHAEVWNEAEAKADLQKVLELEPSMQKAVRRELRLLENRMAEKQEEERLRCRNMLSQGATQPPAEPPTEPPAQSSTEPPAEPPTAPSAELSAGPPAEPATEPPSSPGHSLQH

T4: human aryl hydrocarbon receptor-interacting protein-like 1 (hAIPL1), full length, His6-tagged (human, UniProt Q9NZN9 1-384)
T4 sequence (looked up): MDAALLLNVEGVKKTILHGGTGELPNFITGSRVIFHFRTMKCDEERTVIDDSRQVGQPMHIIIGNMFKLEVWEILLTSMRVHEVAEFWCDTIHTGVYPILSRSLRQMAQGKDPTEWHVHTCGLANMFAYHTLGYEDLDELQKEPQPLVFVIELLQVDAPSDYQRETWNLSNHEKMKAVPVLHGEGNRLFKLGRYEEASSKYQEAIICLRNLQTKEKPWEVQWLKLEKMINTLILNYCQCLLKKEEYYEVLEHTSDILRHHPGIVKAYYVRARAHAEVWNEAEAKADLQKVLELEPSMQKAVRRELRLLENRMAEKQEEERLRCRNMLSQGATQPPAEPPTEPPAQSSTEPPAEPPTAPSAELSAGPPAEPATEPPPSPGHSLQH


Tests used:
[1] = target: FITC-labeled C-terminal peptide of HSP90a; test: fluorescence polarisation
[2] = target: PDE6 γ-subunit with a single Cys at position 35, labeled with 3-(bromo acetyl)-7-diethyl aminocoumarine (UniProt P04972); test: other fluorescence titration
[3] = target: AMCA-labeled C-terminal peptide of mouse PDE6A, S-farnesylated and carboxymethylated (mouse); test: FRET or BRET
[4] = target: T1, hAIPL1 R302L mutant, His6-tagged; test: FRET or BRET
[5] = target: T2, hAIPL1 1–316 lacking the proline-rich …; test: FRET or BRET
[6] = target: T3, hAIPL1 P376S mutant, His6-tagged; test: FRET or BRET
[7] = target: T4, human aryl hydrocarbon …; test: FRET or BRET
[8] = target: T4, human aryl hydrocarbon …; test: other fluorescence titration

Kd [1]	Kd [2]	Molecule	further results
32.8 µM	1.38 µM	hAIPL1 P351∆12 mutant, His6-tagged (from UniProt Q9NZN9 1-384) (natural protein)	Kd [3]: 0.14 µM
20.8 µM	0.73 µM	hAIPL1 1–316 lacking the proline-rich domain, His6-tagged (domain or fragment) MDAALLLNVEGVKKTILHGGTGELPNFITGSRVIFHFRTMKCDEERTVIDDSRQVGQPMHIIIGNMFKLEVWEILLTSMRVHEVAEFWCDTIHTGVYPILSRSLRQMAQGKDPTEWHVHTCGLANMFAYHTLGYEDLDELQKEPQPLVFVIELLQVDAPSDYQRETWNLSNHEKMKAVPVLHGEGNRLFKLGRYEEASSKYQEAIICLRNLQTKEKPWEVQWLKLEKMINTLILNYCQCLLKKEEYYEVLEHTSDILRHHPGIVKAYYVRARAHAEVWNEAEAKADLQKVLELEPSMQKAVRRELRLLENRMAEKQ	–
20.8 µM	0.99 µM	human aryl hydrocarbon receptor-interacting protein-like 1 (hAIPL1), full length, His6-tagged (natural protein) MDAALLLNVEGVKKTILHGGTGELPNFITGSRVIFHFRTMKCDEERTVIDDSRQVGQPMHIIIGNMFKLEVWEILLTSMRVHEVAEFWCDTIHTGVYPILSRSLRQMAQGKDPTEWHVHTCGLANMFAYHTLGYEDLDELQKEPQPLVFVIELLQVDAPSDYQRETWNLSNHEKMKAVPVLHGEGNRLFKLGRYEEASSKYQEAIICLRNLQTKEKPWEVQWLKLEKMINTLILNYCQCLLKKEEYYEVLEHTSDILRHHPGIVKAYYVRARAHAEVWNEAEAKADLQKVLELEPSMQKAVRRELRLLENRMAEKQEEERLRCRNMLSQGATQPPAEPPTEPPAQSSTEPPAEPPTAPSAELSAGPPAEPATEPPPSPGHSLQH	–
23 µM	0.95 µM	hAIPL1 P376S mutant, His6-tagged (natural protein) MDAALLLNVEGVKKTILHGGTGELPNFITGSRVIFHFRTMKCDEERTVIDDSRQVGQPMHIIIGNMFKLEVWEILLTSMRVHEVAEFWCDTIHTGVYPILSRSLRQMAQGKDPTEWHVHTCGLANMFAYHTLGYEDLDELQKEPQPLVFVIELLQVDAPSDYQRETWNLSNHEKMKAVPVLHGEGNRLFKLGRYEEASSKYQEAIICLRNLQTKEKPWEVQWLKLEKMINTLILNYCQCLLKKEEYYEVLEHTSDILRHHPGIVKAYYVRARAHAEVWNEAEAKADLQKVLELEPSMQKAVRRELRLLENRMAEKQEEERLRCRNMLSQGATQPPAEPPTEPPAQSSTEPPAEPPTAPSAELSAGPPAEPATEPPSSPGHSLQH	–
27.2 µM	0.81 µM	hAIPL1 R302L mutant, His6-tagged (natural protein) MDAALLLNVEGVKKTILHGGTGELPNFITGSRVIFHFRTMKCDEERTVIDDSRQVGQPMHIIIGNMFKLEVWEILLTSMRVHEVAEFWCDTIHTGVYPILSRSLRQMAQGKDPTEWHVHTCGLANMFAYHTLGYEDLDELQKEPQPLVFVIELLQVDAPSDYQRETWNLSNHEKMKAVPVLHGEGNRLFKLGRYEEASSKYQEAIICLRNLQTKEKPWEVQWLKLEKMINTLILNYCQCLLKKEEYYEVLEHTSDILRHHPGIVKAYYVRARAHAEVWNEAEAKADLQKVLELEPSMQKAVLRELRLLENRMAEKQEEERLRCRNMLSQGATQPPAEPPTEPPAQSSTEPPAEPPTAPSAELSAGPPAEPATEPPPSPGHSLQH	–
–	–	GAPASKSC(Farnesyl) (also: Cys carboxymethylated, AMCA-X conjugated) [AMCA-labeled C-terminal peptide of mouse PDE6A, S-farnesylated and carboxymethylated]	Kd [4]: 0.16 µM; Kd [5]: 0.24 µM; Kd [6]: 0.2 µM; Kd [7]: 0.11 µM
–	–	PDE6 γ-subunit with a single Cys at position 68, labeled with 3-(bromo acetyl)-7-diethyl aminocoumarine (natural protein, UniProt P04972 1-87, looked up, 3-(bromo acetyl)-7-diethyl aminocoumarine (BC) on Cys68) MNLEPPKAEIRSATRVMGGPVTPRKGPPKFKQRQTRQFKSKPPKKGVQGFGDDIPGMEGLGTDITVICPWEAFNHLELHELAQYGII	Kd [8]: 2.5 µM
